Data on 1 molecule can be found in US20090068158A1, “THYMIDYLATE KINASE MUTANTS AND USES THEREOF” (priority 2005, published 2009).

For data set [1] the following is noted: relative to wild-type tmpk; cited from earlier work.
Data set [2] in a line: Enzymatic activity of tmpk mutants for AZT-MP. It counts as biochemical, human.

B1: F105Y+R200A: modified human tmpk combining mutations F105Y and R200A (protein, UniProt P23919 2-212, looked up, variant F105Y R200A)
Thymidylate kinase: AARRGALIVLEGVDRAGKSTQSRKLVEALCAAGHRAELLRFPERSTEIGKLLSSYLQKKSDVEDHSVHLLFSANRWEQVPLIKEKLSQGVTLVVDRYAFSGVAYTGAKENFSLDWCKQPDVGLPKPDLVLFLQLQLADAAKRGAFGHERYENGAFQERALRCFHQLMKDTTLNWKMVDASKSIEAVHEDIRVLSEDAIATATEKPLGELWK
As for B1, in data set [1], the “enhanced activity for AZT-MP” value is “approximately 200 fold”. Besides, the “enzymatic activity / catalytic conversion compared to wild-type tmpk (in words)” value in data set [2] is given as “superior enzymatic activity”.
